Reference: IntAct's records for PubMed 15064750

B1: Proliferation-associated protein 2G4 (Homo sapiens), Q9UQ80 (parent)
chain: MSGEDEQQEQTIAEDLVVTKYKMGGDIANRVLRSLVEASSSGVSVLSLCEKGDAMIMEETGKIFKKEKEMKKGIAFPTSISVNNCVCHFSPLKSDQDYILKEGDLVKIDLGVHVDGFIANVAHTFVVDVAQGTQVTGRKADVIKAAHLCAEAALRLVKPGNQNTQVTEAWNKVAHSFNCTPIEGMLSHQLKQHVIDGEKTIIQNPTDQQKKDHEKAEFEVHEVYAVDVLVSSGEGKAKDAGQRTTIYKRDPSKQYGLKMKTSRAFFSEVERRFDAMPFTLRAFEDEKKARMGVVECAKHELLQPFNVLYEKEGEFVAQFKFTVLLMPNGPMRITSGPFEPDLYKSEMEVQDAELKALLQSSASRKTQKKKKKKASKTAENATSGETLEENEAGD

Variants of: B1
Conditions: with npm_human NPM1, P06748
Sequence of npm_human NPM1, P06748 (P06748 whole entry): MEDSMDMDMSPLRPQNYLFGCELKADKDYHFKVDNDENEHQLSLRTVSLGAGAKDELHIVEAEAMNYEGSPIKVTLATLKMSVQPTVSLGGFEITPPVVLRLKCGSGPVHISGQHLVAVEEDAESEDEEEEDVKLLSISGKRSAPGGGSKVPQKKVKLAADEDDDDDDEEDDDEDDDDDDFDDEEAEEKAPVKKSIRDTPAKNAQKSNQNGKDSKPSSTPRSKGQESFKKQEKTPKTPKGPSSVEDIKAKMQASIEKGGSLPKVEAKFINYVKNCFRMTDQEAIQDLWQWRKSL

Variant | effect of a mutation on the interaction
MSGEDEQQEQTIAEDLVVTKYKMGGDIANRVLRSLVEASSSGVSVLSLCEKGDAMIMEETGKIFKKEKEMKKGIAFPTSISVNNCVCHFSPLKSDQDYILKEGDLVKIDLGVHVDGFIANVAHTFVVDVAQGTQVTGRKADVIKAAHLCAEAALRLVKPGNQNTQVTEAWNKVAHSFNCTPIEGMLSHQLKQHVIDGEKTIIQNPTDQQKKDHEKAEFEVHEVYAVDVLVSSGEGKAKDAGQRTTIYKRDPSKQYGLKMKTSRAFFSEVERRFDAMPFTLRAFEDEKKARMGVVECAKHELLQPFNVLYEKEGEFVAQFKFTVLLMPNGPMRITSGPFEPDLYKSEMEVQDAELKALLQSSASAATQKKKKKKASKTAENATSGETLEENEAGD [R364A;K365A] | decreasing interaction
MSGEDEQQEQTIAEDLVVTAYAMGGDIANRVLRSLVEASSSGVSVLSLCEKGDAMIMEETGKIFKKEKEMKKGIAFPTSISVNNCVCHFSPLKSDQDYILKEGDLVKIDLGVHVDGFIANVAHTFVVDVAQGTQVTGRKADVIKAAHLCAEAALRLVKPGNQNTQVTEAWNKVAHSFNCTPIEGMLSHQLKQHVIDGEKTIIQNPTDQQKKDHEKAEFEVHEVYAVDVLVSSGEGKAKDAGQRTTIYKRDPSKQYGLKMKTSRAFFSEVERRFDAMPFTLRAFEDEKKARMGVVECAKHELLQPFNVLYEKEGEFVAQFKFTVLLMPNGPMRITSGPFEPDLYKSEMEVQDAELKALLQSSASRKTQKKKKKKASKTAENATSGETLEENEAGD [K20A;K22A] | disrupting interaction
